The values below are quoted from earlier work in publication PMC3899951.

pKd: −log10 of the molar value.

The target of series [1] is histone H4 singly acetylated peptide (Homo sapiens) (UniProt P62805).
For series [2], the target named is histone H4 K5,8,12,16ac peptide (Homo sapiens) (UniProt P62805).

What is called pKd is −log10 of the Kd, conventionally taken in molar units. Consider “TAFII250 tandem bromodomain (from UniProt P21675)”, for which the pKd in series [1] was 4.41; in series [2], 5.30.
